Data reported in publication PMC3997499, “Resolving Hot Spots in the C-Terminal Dimerization Domain that Determine the Stability of the Molecular Chaperone Hsp90” (PLoS ONE, 2014).
“And” between values parts separate entries of the source, which are not always exact repeats. Equal values may be shown once.

Experiments:
[1] = molecular target: the molecule itself; assay: SEC-MALS; Bio SEC-5 150 Å column, HPLC buffer without glycerol (10 mM MES, 200 mM KCl, 1 mM EDTA, pH 6), samples 2.4 mg/ml; dimer to monomers
[2] = molecular target: the molecule itself; assay: SEC; Superdex SD200 10/300, 4°C, HPLC buffer (10 mM MES/KOH, 200 mM KCl, 1 mM EDTA, 1% glycerol) pH 6, 110 µL purified CTD, triplicates; apparent stoichiometry from calibration with globular protein standards
[3] = molecular target: the molecule itself; assay: SEC-MALS; Bio SEC-5 150 Å column, HPLC buffer without glycerol (10 mM MES, 200 mM KCl, 1 mM EDTA, pH 6), samples 2.4 mg/ml; dimer to monomers; remark: listed apart in the source

Protein	stoichiometry N [1]	stoichiometry N [2]	fraction of species 1 (monomer mass) [3]	fraction of species 2 (dimer mass) [3]	binding result [2]
hHsp90 CTD hot spot mutant I CTD^Y689A/I692A/L696A (domain or fragment, human Hsp90 alpha isoform (UniProt P07900), C-terminal domain, residues 563-732, with Y689A, I692A and L696A; Same construct as m1 (pTEV21-a), made by site-directed mutagenesis) not shown	2	4	0.77	0.23	–
C-terminal domain (CTD) of human heat shock protein of 90 kDa (hHsp90), wild type (domain or fragment, human Hsp90 alpha isoform (UniProt P07900), C-terminal domain, residues 563-732; synthetic codon-optimized DNA; Vector pTEV21-a; also called CTD wt; wt) not shown	2	4 and 8	0	1	–
hHsp90 CTD hot spot mutant II CTD^I688A/Y689A/I692A (domain or fragment, human Hsp90 alpha isoform (UniProt P07900), C-terminal domain, residues 563-732, with I688A, Y689A and I692A; Same construct as m1 (pTEV21-a), made by site-directed mutagenesis) not shown	2	4	0.69	0.31	–
hHsp90 CTD cold spot mutant CTD^S658A/Q682A (domain or fragment, human Hsp90 alpha isoform (UniProt P07900), C-terminal domain, residues 563-732, with S658A and Q682A; Same construct as m1 (pTEV21-a), made by site-directed mutagenesis; also called S658A/Q682A cold spot mutant) not shown	–	–	–	–	binds
